Ends that are not written are not given here.
What was measured:
Assay in all cases: peptide microarray
[1] = molecular target: T1, ApoC3 peptide … T44W (human, not fully specified (bridges); also: cyclic constrained)
T1 peptide: ARGWVWDGFSSLK
Excerpt: (§1) Amino acids G41 and G46 were highly conserved; substitution of G41 by E, N or Q caused a decrease of spot intensities by ˜70% or higher, whereas exchange of G46 by N was hardly tolerated and resulting in 90% reduced spot intensities. […] Amino acid positions V43, D45 and K51 were also well conserved with a clear preference for the wild type amino acids and a certain tolerance particularly for conservative exchanges by Y, F and I (V43), A, E and K (D45) as well as by R (K51). […] Replacement of V43 by Y, however, increased spot intensity by two fold. Amino acid positions W42 and 48S were poorly conserved or even variable; both positions were susceptible for only a number of amino acid exchanges, and exchange by F, S and T (W42) or by E (S48) even caused a two- to three-fold increase of spot intensity. Amino acid positions A39 and R40 were variable.
(§2) Pre: staining of one of the ApoC3 peptide microarrays was done with the secondary antibody goat anti-human IgG (Fe) DyLight680 (1:5000) and control antibody mouse monoclonal anti-HA (12CA5) DyLight800 (1:2000) to investigate background interactions of the secondary antibody with the antigen-derived peptides that could interfere with the main assays. Subsequent incubation of other ApoC3 peptide microarrays with antibody samples was followed by staining with secondary and control antibodies as well as read-out at scanning intensities of 7/7 (red/green). The additional HA peptides framing the peptide arrays were stained as internal quality control to confirm the assay quality and the peptide microarray integrity.

[2] = molecular target: T2, ApoC3 peptide … S48D (human, not fully specified; cyclic constrained)
T2 peptide: ARGWVTDGFDSLK
Excerpt: as §1, §2

[3] = molecular target: ApoC3 peptide … S48P (human, cyclic constrained)
Excerpt: as §1, §2

[4] = molecular target: T3, ApoC3 peptide … R40K (human, not fully specified (bridges); also: cyclic constrained)
T3 peptide: AKGWVTDGFSSLK
Excerpt: as §1, §2

[5] = molecular target: T4, ApoC3 peptide … R40H (human, not fully specified (bridges); also: cyclic constrained)
T4 peptide: AHGWVTDGFSSLK
Excerpt: as §1, §2

[6] = molecular target: T5, ApoC3 peptide … F47D (human, not fully specified (bridges); also: cyclic constrained)
T5 peptide: ARGWVTDGDSSLK
Excerpt: as §1, §2

[7] = molecular target: T6, ApoC3 peptide … A39I (human, cyclic constrained)
T6 peptide: IRGWVTDGFSSLK
Excerpt: as §1, §2

[8] = molecular target: T7, ApoC3 peptide … K51H (human, not fully specified; cyclic constrained)
T7 peptide: ARGWVTDGFSSLH
Excerpt: as §1, §2

[9] = molecular target: T8, ApoC3 peptide … R40E (human, not fully specified (bridges); also: cyclic constrained)
T8 peptide: AEGWVTDGFSSLK
Excerpt: as §1, §2

[10] = molecular target: T9, ApoC3 peptide … G41D (human, also: cyclic constrained)
T9 peptide: ARDWVTDGFSSLK
Excerpt: as §1, §2

[11] = molecular target: T10, ApoC3 peptide … K51R (human, not fully specified; cyclic constrained)
T10 peptide: ARGWVTDGFSSLR
Excerpt: as §1, §2

[12] = molecular target: T11, ApoC3 peptide … T44A (human, not fully specified (bridges); also: cyclic constrained)
T11 peptide: ARGWVADGFSSLK
Excerpt: as §1, §2

[13] = molecular target: T12, ApoC3 peptide … G46A (human, also: cyclic constrained)
T12 peptide: ARGWVTDAFSSLK
Excerpt: as §1, §2

[14] = molecular target: T13, ApoC3 peptide … S49A (human, not fully specified (bridges); also: cyclic constrained)
T13 peptide: ARGWVTDGFSALK
Excerpt: as §1, §2

[15] = molecular target: T14, ApoC3 peptide … T44M (human, not fully specified (bridges); also: cyclic constrained)
T14 peptide: ARGWVMDGFSSLK
Excerpt: as §1, §2

[16] = molecular target: T15, ApoC3 peptide … L50H (human, not fully specified; cyclic constrained)
T15 peptide: ARGWVTDGFSSHK
Excerpt: as §1, §2

[17] = molecular target: T16, ApoC3 peptide … T44G (human, not fully specified (bridges); also: cyclic constrained)
T16 peptide: ARGWVGDGFSSLK
Excerpt: as §1, §2

[18] = molecular target: T17, ApoC3 peptide … D45N (human, cyclic constrained)
T17 peptide: ARGWVTNGFSSLK
Excerpt: as §1, §2

[19] = molecular target: T18, ApoC3 peptide … F47Q (human, not fully specified (bridges); also: cyclic constrained)
T18 peptide: ARGWVTDGQSSLK
Excerpt: as §1, §2

[20] = molecular target: T19, ApoC3 peptide … W42D (human, not fully specified (bridges); also: cyclic constrained)
T19 peptide: ARGDVTDGFSSLK
Excerpt: as §1, §2

[21] = molecular target: T20, ApoC3 peptide … G41W (human, also: cyclic constrained)
T20 peptide: ARWWVTDGFSSLK
Excerpt: as §1, §2

[22] = molecular target: T21, ApoC3 peptide … G46V (human, thioether (positions not given here); also: cyclic constrained)
T21 peptide: ARGWVTDVFSSLK
Excerpt: as §1, §2

[23] = molecular target: T22, ApoC3 peptide … G46M (human, not fully specified (bridges); also: cyclic constrained)
T22 peptide: ARGWVTDMFSSLK
Excerpt: as §1, §2

[24] = molecular target: ApoC3 peptide … S48N (human, cyclic constrained)
Excerpt: as §1, §2

[25] = molecular target: T23, ApoC3 peptide … G46W (human, thioether (positions not given here); also: cyclic constrained)
T23 peptide: ARGWVTDWFSSLK
Excerpt: as §1, §2

[26] = molecular target: T24, ApoC3 peptide … D45V (human, cyclic constrained)
T24 peptide: ARGWVTVGFSSLK
Excerpt: as §1, §2

[27] = molecular target: T25, ApoC3 peptide … R40M (human, not fully specified (bridges); also: cyclic constrained)
T25 peptide: AMGWVTDGFSSLK
Excerpt: as §1, §2

[28] = molecular target: T26, ApoC3 peptide … A39M (human, cyclic constrained)
T26 peptide: MRGWVTDGFSSLK
Excerpt: as §1, §2

[29] = molecular target: T27, ApoC3 peptide … L50V (human, not fully specified (bridges); also: cyclic constrained)
T27 peptide: ARGWVTDGFSSVK
Excerpt: as §1, §2

[30] = molecular target: T28, ApoC3 peptide … V43L (human, not fully specified; cyclic constrained)
T28 peptide: ARGWLTDGFSSLK
Excerpt: as §1, §2

[31] = molecular target: T29, ApoC3 peptide … W42V (human, not fully specified (bridges); also: cyclic constrained)
T29 peptide: ARGVVTDGFSSLK
Excerpt: as §1, §2

% of binding to wild-type peptide [1]: 0%
% of binding to wild-type peptide [2]: 71.6%
% of binding to wild-type peptide [3]: 0.06%
% of binding to wild-type peptide [4]: 58.1%
% of binding to wild-type peptide [5]: 44.4%
% of binding to wild-type peptide [6]: 0%
% of binding to wild-type peptide [7]: 52.3%
% of binding to wild-type peptide [8]: 2.43%
% of binding to wild-type peptide [9]: 76.9%
% of binding to wild-type peptide [10]: 19.4%
% of binding to wild-type peptide [11]: 57.4%
% of binding to wild-type peptide [12]: 0%
% of binding to wild-type peptide [13]: 0%
% of binding to wild-type peptide [14]: 2.43%
% of binding to wild-type peptide [15]: 0%
% of binding to wild-type peptide [16]: 0%
% of binding to wild-type peptide [17]: 0%
% of binding to wild-type peptide [18]: 4.85%
% of binding to wild-type peptide [19]: 0%
% of binding to wild-type peptide [20]: 108%
% of binding to wild-type peptide [21]: 17.7%
% of binding to wild-type peptide [22]: 0%
% of binding to wild-type peptide [23]: 0%
% of binding to wild-type peptide [24]: 48.5%
% of binding to wild-type peptide [25]: 0%
% of binding to wild-type peptide [26]: 1.21%
% of binding to wild-type peptide [27]: 69.6%
% of binding to wild-type peptide [28]: 90.7%
% of binding to wild-type peptide [29]: 0.74%
% of binding to wild-type peptide [30]: 429%
% of binding to wild-type peptide [31]: 48.3%
B1: anti-ApoC3 antibody 14C7 (antibody, V domains shown)
VH: QVQVQESGPGLVKPSQTLSLTCTVSGGSITTNSYYWSWIRQPPGKGLEWMGAIDYSGDTYYSPSLKSRTSISRDTSKNQFTLQLTSVTPEDTAVYYCVSRIPTGEYWGQGTQVTVSS
VL: QTVVTQEPSLSVSPGGTVTLTCGLNSGSVTSSNYPDWYQQTPGQAPRLLIYNTNSRHSGVPSRFSGSISGNKAALTITGAQPEDEADYYCALYMGSDSVVFGGGTHLTVL
notes: it was detected with goat anti-human IgG (Fc); also called mAb 14C7; llama antibody 14C7

Reference: patent publication US20190241648A1 (STATEN BIOTECHNOLOGY B V, published 2019)
